Drawing on PMC9338584 (2022), this text covers Kd for one molecule.

The target in this assay is recombinant lamprey tumor necrosis factor receptor (rL-TNFR) (lamprey). The experiment in a line: SPR.

Broadly, the Kd is a measure of binding affinity in units of concentration.

B1: recombinant Lr-PGRN-S1 (Lethenteron reissneri short-form progranulin S1) (natural protein)
chain: MGAVFSLGLSKEAIAMALPRPLMFVLVAAGLCALVSADRCPDGRFCVSRCCWKFTQYTCCWAGEGEGQGETQGELATVPAQAISATVSKVSSCAGSVCSANGESRCCPLSEGSCCGDGLSCCGKGSTCTTFRGLNLCLPHAEFQDPVATFLSREQQQHQQGGCVDDSGCPAGSECHVASGDHRGQCVSSDALIPWVEKEAALSGAVGAQVVYCGSGQYCRDGQTCCRLATGSWGCCNIPHAICCSDGIHCCPTGHFCLTASGLCARSTLSLPAVEGV
On to B1, for which the Kd was determined as 337 nM.
